{"source": "patent EP0931836B1", "about": "“Vasopermeability enhancing peptide of human interleukin-2 and immunoconjugates thereof” (priority 1998, dated 2004)", "molecules": {"B1": {"name": "125I-labeled F(ab')2 fragment of murine monoclonal antibody Lym-1 (IgG2a) (antibody, from another filing, V domains shown)", "VH": "QLKESGPGLVAPSQSLSITCTISGFSLTSYGVHWVRQPPGKGLEWLVVIWSDGSTTYNSALKSRLSISKDNSKSQVFLKMNSLQTDDTAIYYCASHYGSTLAFASWGHGTLVTVSA", "VL": "DIQMTQSPASLSASVGETVTIICRASVNIYSYLAWYQQKQGKSPQLLVYNAKILAEGVPSRFSGSGSGTQFSLKINSLQPEDFGSYYCQHHYGTFTFGSGTKLEIK"}}, "key": {"[1]": {"target": "nucleohistones expressed in the nucleus of mammalian cells", "assay": "paraformaldehyde-acetone-treated cell assay, 125I-labeled F(ab')2"}, "[2]": {"tested_on": "Raji tumor-bearing nude mice", "assay": "In vivo vasopermeability / biodistribution study, Raji lymphoma model (Lym-1 immunoconjugates)", "protocol": "The Raji lymphoma cell line was used to produce heterotransplants in 6-week-old female nude mice by the subcutaneous injection of a 0.2 ml inoculum consisting of 4 x 10^7 Raji cells and 4 x 10^6 human fetal fibroblast feeder cells in the left thigh. Three days prior to injection, the mice were irradiated with 400 rads using a cesium irradiator to ensure a high take rate of the implanted cells. The tumors were grown for 14-18 days until they grew to approximately 1 cm in diameter.\nTo test the relative effects of the immunoconjugates on the biodistribution and tumor uptake of Lym-1 or TNT-1 in tumor-bearing mice, separate groups of 4-5 mice were given intravenous injections of 30 µg of antibody alone or antibody conjugate. At 2.5 hr after injection, each group received 50 µCi of ^125I-labeled Lym-1 or TNT-1 F(ab')2 fragment as tracer.\nAll animals were sacrificed 72 hr later, by sodium pentobarbital overdose, for biodistribution analysis. Various organs, blood, and tumor were removed, weighed, and samples were counted in a gamma counter. For each mouse, data were expressed as tumor:organ ratio (cpm per gram tumor/cpm per gram organ) and percent injected dose/gram (%ID/g).\nEach peptide and rhIL-2, as well as their respective immunoconjugates with MAb Lym-1, were assayed for their ability to induce tumor vascular permeability and enhanced antibody uptake in Raji tumor-bearing nude mice."}, "[3]": {"target": "variant of the HLA-Dr antigen expressed on the cell surface of human B-lymphocytes and malignant lymphomas (on Raji Burkitt's lymphoma cells) (human)", "assay": "live cell radioimmunoassay on Raji cells, 125I-labeled F(ab')2"}}, "data": [{"molecule": "125I-labeled F(ab')2 fragment of murine monoclonal antibody TNT-1 (IgG2a)", "values": [{"measurement": "immunoreactivity", "setting": "[1]", "value": "> 80", "unit": "%"}]}, {"molecule": "3C: synthetic peptide fragment of IL-2, amino acid sequence 22-58 (SEQ ID NO: 1), permeability enhancing peptide (QMILNGINNYKNPKLTRMLTFKFYMPKKATELKHLQC) [Fragment 3C]", "values": [{"measurement": "vasopermeability effects of Lym-1/IL-2 chemical conjugate", "setting": "[2]; named peptide tested as vasoconjugate (joined to delivery vehicle, Lym-1), relative to IL-2 immunoconjugate", "value": "approximately 100%"}, {"measurement": "Vasopermeability (%Lym-1/IL-2)", "setting": "[2]; tumor vascular permeability and enhanced antibody uptake in Raji tumor-bearing nude mice, relative to Lym-1/IL-2, 30-40 pM of peptide per assay", "value": 0, "unit": "%Lym-1/IL-2"}]}, {"molecule": "B1", "values": [{"measurement": "percent bound (immunoreactivity)", "setting": "[3]", "value": 80, "unit": "%"}]}]}
